Assay results from patent US20240342246A1 (YALE UNIVERSITY, published 2024).
Numbering of substitutions follows the chain as printed. Names and notes keep the numbering of the source.

B1: wild-type (WT) IL-12 (ligand)
chain 1: IWELKKDVYVVELDWYPDAPGEMVVLTCDTPEEDGITWTLDQSSEVLGSGKTLTIQVKEFGDAGQYTCHKGGEVLSHSLLLLHKKEDGIWSTDILKDQKEPKNKTFLRCEAKNYSGRFTCWWLTTISTDLTFSVKSSRGSSDPQGVTCGAATLSAERVRGDNKEYEYSVECQEDSACPAAEESLPIEVMVDAVHKLKYENYTSSFFIRDIIKPDPPKNLQLKPLKNSRQVEVSWEYPDTWSTPHSYFSLTFCVQVQGKSKREKKDRVFTDKTSATVICRKNASISVRAQDRYYSSSWSEWASVPCS
chain 2: RNLPVATPDPGMFPCLHHSQNLLRAVSNMLQKARQTLEFYPCTSEEIDHEDITKDKTSTVEACLPLELTKNESCLNSRETSFITNGSCLASRKTSFMMALCLSSIYEDLKMYQVEFKTMNAKLLMDPKRQIFLDQNMLAVIDELMQALNFNSETVPQKSSLEEPDFYKTKIKLCILLHAFRIRAVTIDRVMSYLNAS
B2: IL-12 H216A/K217A/K219A triple mutant (HKK) (ligand)
chain 1: B1 chain 1 with H194A, K195A, K197A
chain 2: B1 chain 2
B3: H216A/K219A IL-12 (IL-12p40 HK219 with WT IL-12p35) (ligand)
chain 1: B1 chain 1 with H194A, K197A
chain 2: B1 chain 2

Target: IL-12 receptor β1 (IL-12Rβ1) (human, UniProt P42701 24-662)
Assay: cell-based or functional assay

Row | Binder | EC50 of STAT4 phosphorylation in human NK cells (flow cytometry, FIG. 3A) [mg/L] | EC50 of STAT4 phosphorylation in human NK cells (flow cytometry, FIG. 3B) [mg/L]
1 | B1 | 0.0408 | 0.0574
2 | B2 | 0.839 | –
3 | B3 | – | 0.29
